In patent publication US20060025335A1:

What was measured:
[1] = biological target: Myc-tagged UNC5H2 (pMyc-UNC5H2) (human) (UniProt Q8IZJ1); experiment: cell-based or functional assay
[2] = biological target: somatostatin receptor 3 (pCMV6c-SSTR3); experiment: cell-based or functional assay

UniProt Q8IZJ1, sequence (Q8IZJ1 other isoform, or with tags, fused parts or gaps): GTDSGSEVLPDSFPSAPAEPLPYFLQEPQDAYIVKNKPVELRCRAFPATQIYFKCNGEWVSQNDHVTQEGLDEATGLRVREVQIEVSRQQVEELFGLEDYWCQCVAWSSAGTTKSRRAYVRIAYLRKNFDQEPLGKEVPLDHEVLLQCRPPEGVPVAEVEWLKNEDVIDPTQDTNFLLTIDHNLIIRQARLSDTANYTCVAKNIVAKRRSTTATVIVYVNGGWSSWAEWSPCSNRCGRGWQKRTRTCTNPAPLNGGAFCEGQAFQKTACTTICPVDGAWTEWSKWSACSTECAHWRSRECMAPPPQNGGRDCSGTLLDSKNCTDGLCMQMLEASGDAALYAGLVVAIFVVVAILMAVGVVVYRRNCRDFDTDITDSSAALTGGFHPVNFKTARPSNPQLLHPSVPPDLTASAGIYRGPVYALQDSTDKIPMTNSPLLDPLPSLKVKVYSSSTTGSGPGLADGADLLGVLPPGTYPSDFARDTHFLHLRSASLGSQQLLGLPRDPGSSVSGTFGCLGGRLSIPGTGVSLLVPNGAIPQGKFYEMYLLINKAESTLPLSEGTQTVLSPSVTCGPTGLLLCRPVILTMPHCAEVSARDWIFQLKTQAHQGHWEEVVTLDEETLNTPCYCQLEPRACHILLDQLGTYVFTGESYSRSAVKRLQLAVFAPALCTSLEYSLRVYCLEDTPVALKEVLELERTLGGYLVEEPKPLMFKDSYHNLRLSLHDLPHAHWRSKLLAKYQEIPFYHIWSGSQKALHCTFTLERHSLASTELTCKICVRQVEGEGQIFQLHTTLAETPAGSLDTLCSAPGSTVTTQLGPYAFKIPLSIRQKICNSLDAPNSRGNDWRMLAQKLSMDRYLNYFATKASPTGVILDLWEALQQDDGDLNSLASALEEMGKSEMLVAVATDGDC

Substance	cAMP accumulation in transfected COS7 cells, Netrin 1 given before SST-14 [1]	decrease in cAMP accumulation in transfected COS7 cells [2]
Netrin 1 (R&D Systems) (ligand)	41%	
somatostatin-14 (from UniProt P61278 89-116) (peptide)		32%
